Measured values from the supplement of paper PMC10567573.

B1: PRPH (parent)
chain: DEIEFLKKLHEEELRDLQVSVESQ
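Note: lentivirally expressed fusions sorted by FACS into six bins by GFP to DsRed ratio, PSI derived from sequencing read proportions per bin multiplied by bin number.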

Variants of: B1
Assay: protein stability index of a GFP-peptide fusion (GPS, HEK-293T) (PSI 1-6); higher = more stable
Conditions: c terminus: a fixed tail appended
In the case of H10E, the protein stability index is reported as 5.23.
H10M gave a protein stability index of 3.88.
H10C gave a protein stability index of 4.56.
With H10T the protein stability index was 4.95.
In the case of H10D, the protein stability index is reported as 5.25.
Work on H10L yielded a protein stability index of 2.52.
H10P gave a protein stability index of 5.1.
Variant H10S has a protein stability index of 5.18.
Work on H10A yielded a protein stability index of 4.42.
In the case of H10I, the protein stability index is reported as 3.37.
H10Y showed a protein stability index of 4.18.
Variant H10Q has a protein stability index of 5.03.
Variant H10N has a protein stability index of 4.16.
For H10K, the protein stability index was 4.78.
In the case of H10V, the protein stability index is reported as 3.52.
Work on H10F yielded a protein stability index of 3.47.
Variant H10G has a protein stability index of 4.64.
H10R showed a protein stability index of 4.87.
H10W showed a protein stability index of 3.54.
Work on E4H yielded a protein stability index of 4.55.
In the case of E4Y, the protein stability index is reported as 3.9.
In the case of E4F, the protein stability index is reported as 3.96.
E4V showed a protein stability index of 4.21.
E4S gave a protein stability index of 4.93.
E4K gave a protein stability index of 4.18.
Variant E4P has a protein stability index of 4.62.
For E4C, the protein stability index was 3.93.
E4W showed a protein stability index of 3.18.
With E4L the protein stability index was 4.15.
E4N showed a protein stability index of 4.91.
With E4I the protein stability index was 4.12.
With E4M the protein stability index was 4.53.
For E4R, the protein stability index was 3.98.
Variant E4T has a protein stability index of 4.16.
E4G showed a protein stability index of 4.57.
With E4Q the protein stability index was 4.34.
E4A gave a protein stability index of 4.36.
E4D gave a protein stability index of 4.93.
Variant E11V has a protein stability index of 3.99.
Work on E11P yielded a protein stability index of 4.34.
With E11A the protein stability index was 4.29.
For E11D, the protein stability index was 4.94.
With E11Q the protein stability index was 4.08.
For E11I, the protein stability index was 4.01.
Variant E11G has a protein stability index of 4.95.
Work on E11F yielded a protein stability index of 3.69.
E11W gave a protein stability index of 3.21.
For E11N, the protein stability index was 4.57.
Work on E11L yielded a protein stability index of 4.11.
E11R showed a protein stability index of 4.23.
In the case of E11Y, the protein stability index is reported as 2.95.
For E11C, the protein stability index was 4.09.
Variant E11T has a protein stability index of 4.46.
E11S showed a protein stability index of 4.52.
Variant E11K has a protein stability index of 4.92.
E11M gave a protein stability index of 3.99.
In the case of E11H, the protein stability index is reported as 4.42.
Work on K7H yielded a protein stability index of 4.21.
Variant K7Y has a protein stability index of 2.42.
Variant K7L has a protein stability index of 2.37.
For K7I, the protein stability index was 2.03.
Variant K7C has a protein stability index of 2.85.
For K7E, the protein stability index was 4.83.
K7P showed a protein stability index of 5.04.
K7F showed a protein stability index of 2.11.
Work on K7S yielded a protein stability index of 3.85.
K7Q gave a protein stability index of 4.61.
K7W showed a protein stability index of 1.96.
For K7T, the protein stability index was 3.15.
With K7V the protein stability index was 2.59.
Work on K7M yielded a protein stability index of 3.07.
K7R showed a protein stability index of 4.59.
With K7G the protein stability index was 4.52.
Variant K7A has a protein stability index of 4.11.
With K7N the protein stability index was 5.18.
For K7D, the protein stability index was 5.06.
Work on L6W yielded a protein stability index of 4.61.
In the case of L6F, the protein stability index is reported as 4.42.
Work on L6S yielded a protein stability index of 5.12.
L6K showed a protein stability index of 4.99.
Work on L6G yielded a protein stability index of 5.07.
With L6R the protein stability index was 4.91.
Work on L6H yielded a protein stability index of 5.21.
With L6Y the protein stability index was 4.72.
With L6Q the protein stability index was 5.54.
With L6D the protein stability index was 5.56.
Variant L6N has a protein stability index of 5.61.
L6I showed a protein stability index of 4.97.
Work on L6C yielded a protein stability index of 5.09.
Variant L6M has a protein stability index of 4.89.
L6T showed a protein stability index of 5.13.
L6E showed a protein stability index of 5.18.
Variant L6A has a protein stability index of 5.48.
In the case of L6V, the protein stability index is reported as 4.46.
Work on L6P yielded a protein stability index of 5.33.
For L9Y, the protein stability index was 4.44.
Work on L9K yielded a protein stability index of 5.49.
In the case of L9P, the protein stability index is reported as 5.52.
L9T showed a protein stability index of 5.3.
With L9G the protein stability index was 5.58.
L9R gave a protein stability index of 5.29.
L9V showed a protein stability index of 5.01.
Variant L9Q has a protein stability index of 4.98.
Work on L9W yielded a protein stability index of 4.38.
In the case of L9N, the protein stability index is reported as 5.34.
Work on L9I yielded a protein stability index of 4.88.
L9S gave a protein stability index of 5.4.
In the case of L9F, the protein stability index is reported as 4.65.
For L9A, the protein stability index was 5.02.
Work on L9C yielded a protein stability index of 4.9.
With L9H the protein stability index was 5.29.
For L9D, the protein stability index was 5.27.
L9M gave a protein stability index of 4.82.
In the case of L9E, the protein stability index is reported as 5.05.
I3V showed a protein stability index of 4.83.
In the case of I3T, the protein stability index is reported as 5.25.
I3M showed a protein stability index of 4.96.
Work on I3W yielded a protein stability index of 4.41.
In the case of I3S, the protein stability index is reported as 5.42.
I3R gave a protein stability index of 5.28.
In the case of I3Q, the protein stability index is reported as 5.08.
In the case of I3N, the protein stability index is reported as 5.46.
I3P gave a protein stability index of 4.94.
For I3Y, the protein stability index was 4.8.
In the case of I3L, the protein stability index is reported as 4.84.
In the case of E12F, the protein stability index is reported as 4.07.
For E12C, the protein stability index was 4.54.
E12D showed a protein stability index of 4.41.
Variant E12A has a protein stability index of 4.69.
Variant K8T has a protein stability index of 4.78.
K8S showed a protein stability index of 4.15.
In the case of K8L, the protein stability index is reported as 4.32.
K8H showed a protein stability index of 4.63.
K8A gave a protein stability index of 5.1.
Variant K8I has a protein stability index of 4.35.
With K8W the protein stability index was 3.45.
K8V showed a protein stability index of 4.06.
K8Q showed a protein stability index of 4.98.
Work on K8F yielded a protein stability index of 3.94.
K8R showed a protein stability index of 4.61.
K8E showed a protein stability index of 4.37.
K8M showed a protein stability index of 4.25.
In the case of K8N, the protein stability index is reported as 4.84.
K8D gave a protein stability index of 4.89.
K8P showed a protein stability index of 5.23.
K8Y gave a protein stability index of 4.23.
K8G showed a protein stability index of 4.55.
Variant K8C has a protein stability index of 3.8.
F5V showed a protein stability index of 4.95.
F5H gave a protein stability index of 4.85.
F5N gave a protein stability index of 4.9.
With F5I the protein stability index was 4.92.
With F5C the protein stability index was 5.15.
With F5K the protein stability index was 4.73.
F5S gave a protein stability index of 5.07.
In the case of F5E, the protein stability index is reported as 5.47.
Work on F5R yielded a protein stability index of 4.79.
In the case of F5G, the protein stability index is reported as 5.36.
Work on F5M yielded a protein stability index of 5.
For F5Q, the protein stability index was 5.41.
With F5T the protein stability index was 5.1.
With F5W the protein stability index was 4.42.
In the case of F5L, the protein stability index is reported as 5.18.
Work on F5Y yielded a protein stability index of 4.58.
With F5P the protein stability index was 5.22.
F5D showed a protein stability index of 5.27.
F5A showed a protein stability index of 4.69.
